# Assay results published in US20080009025A1, “PROTEIN KINASE REGULATION” (priority 1999, published 2008).
# Target: T1, PDK1 (Homo sapiens, UniProt O15530)
# T1 construct: Full length PDK1 (residues 1-556); made in house; host or cells: 293 cells
# T1 sequence (O15530 52-556): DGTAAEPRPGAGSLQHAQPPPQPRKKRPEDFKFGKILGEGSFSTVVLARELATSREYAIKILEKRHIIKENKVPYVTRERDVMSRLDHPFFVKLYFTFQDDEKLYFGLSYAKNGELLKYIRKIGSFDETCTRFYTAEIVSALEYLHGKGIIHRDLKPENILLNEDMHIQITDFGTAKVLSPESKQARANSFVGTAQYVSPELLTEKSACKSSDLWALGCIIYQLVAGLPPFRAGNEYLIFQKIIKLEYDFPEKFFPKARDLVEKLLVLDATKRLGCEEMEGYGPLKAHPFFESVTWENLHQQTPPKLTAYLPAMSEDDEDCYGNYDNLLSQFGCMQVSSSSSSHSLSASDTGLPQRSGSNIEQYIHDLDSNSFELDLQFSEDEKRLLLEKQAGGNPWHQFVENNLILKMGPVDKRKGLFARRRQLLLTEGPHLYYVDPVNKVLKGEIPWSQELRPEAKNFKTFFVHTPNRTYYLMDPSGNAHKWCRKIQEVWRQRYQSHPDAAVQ
# Assay: Surface plasmon resonance binding of PDK1 to PIF / immobilised PIFtide
# Settings: His-tagged PDK1
# Excerpt: It is preferred that the interaction can be detected using a surface plasmon resonance method, as described in Example 1 or 2 and in Balendran et al (1999), supra and GB9906245.7, supra. The interacting polypeptide may be immobilised on the test surface, for example it can be coupled through amino groups to a SensorChip CM5™, according to the manufacturer's instructions, or a biotinylated polypeptide can be bound to an avidin coated SensorChip SA. The protein kinase (at concentrations between, for example 0 and […], for example 2 μM) is then injected over the surface and steady state binding determined in each case. From these measurements a Kd can be determined. […] Alternatively, a Kd can be determined for a polypeptide in competition with the immobilised polypeptide. The protein kinase (for example at a concentration of 0.5 μM) is mixed with free polypeptide (for example, at concentrations between 0 and 3 μM) and the mixture injected over the immobilised polypeptides. The steady state binding is determined in each case, from which the Kd of the interaction can be determined using the […] relationship. Alternatively, the interaction may be expressed in terms of an observed response or relative observed responses, measured in terms of mass of protein bound to the surface, as described in Example 2. For example, the polypeptide may be immobilised by amino coupling to a SensorChip CM5 and each protein kinase (for example different mutated protein kinases, as discussed below) for example at a concentration of 1.0 μM, injected over the immobilised polypeptide. Alternatively, the polypeptide may be immobilised on a SA SensorChip and each protein kinase, for example at a concentration of 40 nM injected over the immobilised polypeptide. The steady state response for each protein kinase is determined, for example expressed in Response Units (RU). 1000 RU corresponds to 1 ng/mm^2 of protein bound to the surface. A response of less than 10 RU may indicate that no interaction has taken place. A response of at least 10 RU may indicate that the immobilised and injected molecules interact with each other.
# FIG. 9. Effect of mutation of conserved residues in the PIF-binding pocket of PDK1 on the ability to interact with PIF. 293 cells were transiently transfected with DNA constructs expressing GST-PIF and either wild type Myc-PDK1 or the indicated mutants of PDK1. 36 h post transfection the cells were lysed and GST-PIF purified by affinity chromatography on glutathione-Sepharose beads. 2 μg of each protein was electrophoresed on a 10% SDS/polyacrylamide gel and either stained with Coomassie blue (A and E) or immunoblotted using an anti Myc antibody to detect Myc-PDK1 (B and F). To establish that the wild type PDK1 and mutant proteins were expressed at a similar level, 10 μg of total cell lysate was electrophoresed on a 10% SDS/polyacrylamide gel and immunoblotted using anti-Myc antibodies (C and G). Duplicates of each condition are shown. Similar results were obtained in 3 to 5 separate experiments. (D) Surface Plasmon Resonance measurements were carried out in a BiaCore instrument as described in the Methods to measure the interaction of wild type and mutant GST-PDK1 preparations with the 24 residue synthetic peptide whose sequence encompasses the PDK1 binding site on PIF termed PIFtide [24: Example 2]. […]
# Binding was analysed directly by surface plasmon resonance in an upgraded Bia-Lite™ system. […]
substance,measurement,value
GST-PIF: glutathione S-transferase fused to the last 77 residues of PRK2 (PIF),estimated equilibrium dissociation constant of the association between GST-PIF and His-tagged PDK1,600 nM
